Reference: patent US11319348B2, “Synthetic beta-amyloid peptides capable of forming stable antigenic oligomers” (The Regents of the University of California, priority 2016, dated 2022)
Non-standard residues stand in square brackets, D forms with d. No end group written: not given here. Orn = NCCC[C@H](N)C(=O)O

Experiments:
[1] = size exclusion chromatography in Tris buffer; type: physicochemical; conditions: SEC
Source text: The elution profile of peptide 8 was compared to the size standards vitamin B12, aprotinin, and cytochrome c, as well as peptide 2. Peptide 8 elutes as a broad peak with three distinct humps (FIG. 41B). […] Peptide 2 elutes as two distinct peaks: a larger peak with an elution volume consistent with the molecular weight of a dimer, and a smaller peak with an elution volume consistent with the molecular weight of a trimer (FIG. 41B). […]

[2] = X-ray crystallography, oligomers in the crystal; type: physicochemical; conditions: crystal state
Description: The structures of trimers 3 and 4 were elucidated by X-ray crystallography. One of the challenges in X-ray crystallography is determining the X-ray crystallographic phases. Doing so often requires incorporation of a heavy atom—such as selenium, bromine or iodine—through covalent modification. In previously solving the X-ray crystallographic structures of peptides 1 and 2, homologues were prepared containing p-iodophenylalanine. In solving the X-ray crystallographic structures of trimers 3 and 4, two techniques for X-ray crystallographic phase determination that have not been widely used for peptides were employed: sulfur single-wavelength anomalous diffraction (S-SAD) and post-crystallization incorporation of iodide ions into the crystal lattice.
S-SAD was used to determine the X-ray crystallographic structure of trimer 4. The intrinsic anomalous scattering of the sulfur atoms in the asymmetric unit provided sufficient data to determine the X-ray crystallographic phases. […]
Diffraction data for trimers 3 and 4 were collected on a Rigaku Micromax-007HF X-ray diffractometer with a rotating copper anode at 1.54 Å wavelength with 0.5° oscillation. […] Coordinates for the anomalous signals were determined by HySS in the Phenix software suite 1.10.1. Electron density maps were generated using anomalous coordinates determined by HySS as initial positions in Autosol. […]

| Substance | oligomer size [1] | oligomer size by crystallography [2] |
| --- | --- | --- |
| peptide 2: macrocyclic β-sheet peptide: Aβ17-23 and Aβ30-36 strands linked by two δOrn turns, Orn35, N-methyl on F20 (Seq. ID 20-21) | dimer, trimer | – |
| trimer 3: symmetric tris-disulfide crosslinked trimer generated from peptide 3 (chain 1 [Orn]CVFFCED; chain 2 [Orn]AIIGL[Orn]V; not fully specified (some residues); also: symmetric tris-disulfide crosslinked trimer, macrocyclic by macrolactamization, linkage of strands not given here) | – | 6 |
